The results in this text go back to paper PMC10989989, “The archaeal KEOPS complex possesses a functional Gon7 homolog and has an essential function independent of the cellular t^6A modification level” (mLife, 2023).

The target in assay [1] is T1, His-tagged SisPcc1 co-expressed with no-tagged SisKae1 in E. coli (Saccharolobus islandicus REY15A, UniProt F0NF65 1-91).
T1 construct: Pcc1 of Saccharolobus islandicus REY15A, encoded by SiRe_1278; Pcc1 is insoluble when expressed alone in E. coli; also called His‐Pcc1; source: E. coli BL21(DE3)-Codon plus-RIL, pRSF-Duet1, co-expressed with no-tagged SisKae1; pulled down and co-purified (Ni-NTA, HiTrap Q FF, Superdex 200)
T1 sequence (looked up): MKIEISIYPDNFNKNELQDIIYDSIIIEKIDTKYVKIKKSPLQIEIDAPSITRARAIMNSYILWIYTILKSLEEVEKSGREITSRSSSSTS
The assay can be described thus: SEC; co-expressed Kae1/Pcc1 subcomplex; Superdex 200 Increase 10/300; 200 mM NaCl, 50 mM Tris-HCl pH 8.0, 5% glycerol; masses from protein standards. The conditions noted are these: both partners purified. For orientation: Size exclusion chromatography separates by hydrodynamic size, large species first.

In assay [2] the target is Flag-tagged SisKae1 co-expressed with His-tagged SisPcc1-like in E. coli (Saccharolobus islandicus REY15A). The assay can be described thus: SEC; co-expressed Kae1/Pcc1-like, Pcc1-like about 10-fold in excess of Kae1; Superdex 200 Increase 10/300; 200 mM NaCl, 50 mM Tris-HCl pH 8.0, 5% glycerol.
The target of assay [3] is SisKae1 mixed in five-fold excess with SisPcc1-like for SEC (Saccharolobus islandicus REY15A). The assay can be described thus: SEC; Kae1 in five-fold excess: 6 μM SisPcc1-like mixed with 30 μM SisKae1, 60°C for 30 min before loading; Superdex 200 Increase 10/300; 200 mM NaCl, 50 mM Tris-HCl pH 8.0, 5% glycerol.
Assay [4] has as its target T2, Kae1‐Pcc1 subcomplex (2Kae1:2Pcc1), co-expressed in E. coli (Saccharolobus islandicus REY15A, UniProt F0NFC9 1-331; F0NF65 1-91).
T2 construct: Kae1 of Saccharolobus islandicus REY15A, no tag; Pcc1 of Saccharolobus islandicus REY15A, encoded by SiRe_1278; The preformed complex (chains as m11 and m16) to which Pcc1-like was added; after addition the product is 1:1:1; also called 2Kae1:2Pcc1 subcomplex; Kae1‐Pcc1‐Pcc1‐Kae1; source: E. coli BL21(DE3)-Codon plus-RIL, pRSF-Duet1, no-tagged SisKae1 co-expressed with His-tagged SisPcc1; …
T2 sequence (looked up) 1: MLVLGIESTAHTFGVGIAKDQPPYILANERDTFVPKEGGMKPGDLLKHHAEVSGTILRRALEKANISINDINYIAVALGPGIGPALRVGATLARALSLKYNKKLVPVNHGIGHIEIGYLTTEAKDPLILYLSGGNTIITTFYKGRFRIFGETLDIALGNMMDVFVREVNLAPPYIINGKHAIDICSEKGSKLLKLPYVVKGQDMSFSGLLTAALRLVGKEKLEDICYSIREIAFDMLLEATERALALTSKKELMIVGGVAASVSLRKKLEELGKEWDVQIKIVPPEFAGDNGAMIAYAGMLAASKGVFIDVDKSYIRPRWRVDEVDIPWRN
T2 sequence (looked up) 2: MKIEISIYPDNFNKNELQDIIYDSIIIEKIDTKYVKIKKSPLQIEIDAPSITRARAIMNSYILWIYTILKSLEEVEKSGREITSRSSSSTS
The assay can be described thus: SEC; 1.5-fold Pcc1-like added to the 2Kae1:2Pcc1 subcomplex, 60°C for 30 min before loading; Superdex 200 Increase 10/300; 200 mM NaCl, 50 mM Tris-HCl pH 8.0, 5% glycerol. The conditions noted are these: both partners purified.

B1: No-tagged SisKae1 from E. coli (natural protein, Saccharolobus islandicus REY15A, UniProt F0NFC9 1-331, looked up)
chain: MLVLGIESTAHTFGVGIAKDQPPYILANERDTFVPKEGGMKPGDLLKHHAEVSGTILRRALEKANISINDINYIAVALGPGIGPALRVGATLARALSLKYNKKLVPVNHGIGHIEIGYLTTEAKDPLILYLSGGNTIITTFYKGRFRIFGETLDIALGNMMDVFVREVNLAPPYIINGKHAIDICSEKGSKLLKLPYVVKGQDMSFSGLLTAALRLVGKEKLEDICYSIREIAFDMLLEATERALALTSKKELMIVGGVAASVSLRKKLEELGKEWDVQIKIVPPEFAGDNGAMIAYAGMLAASKGVFIDVDKSYIRPRWRVDEVDIPWRN
notes: Kae1 of Saccharolobus islandicus REY15A, no tag; Two vectors (pET15b alone; pRSF-Duet1 with His-Pcc1) give the same untagged protein; source: E. coli BL21(DE3)-Codon plus-RIL; alone (pET15b), purified; also co-expressed with His-tagged SisPcc1 (pRSF-Duet1), pulled down and co-purified
The stoichiometry N is the number of molecules, sites or subunits per partner or assembly. As to B1, the “stoichiometry N” value in assay [1] was 1 Kae1 per Pcc1 (printed as 2:2).

B2: His-tagged SisPcc1‐like from E. coli (natural protein, Saccharolobus islandicus REY15A, UniProt F0NIH8 1-81, looked up)
chain: MIELRILSEHEDAELIIRSLNVDNVNLPEGMSIQTKVEGKELEIVIKMRITKPNDLMTVRNTADEILAHIKALQSSFDAIS
notes: Pcc1-like (Gon7-like) of Saccharolobus islandicus REY15A, encoded by SiRe_1701; also called His‐SisPcc1‐like; source: E. coli BL21(DE3)-Codon plus-RIL, pRSF-Duet1 (alone, or co-expressed with Flag-tagged SisKae1 or SisPcc1); purified (Ni-NTA, HiTrap Q FF, Superdex 200)
Take B2: the stoichiometry N (Pcc1-like per Kae1) is 2 in assay [2] and 1 in assay [3]. Besides, the “stoichiometry N” value in assay [4] is 1 Kae1:Pcc1:Pcc1-like 1:1:1.
